The values that follow come from US12448610B2, “Preparation of glycosyltransferase UGT76G1 mutant and use thereof” (CAS Center for Excellence in Molecular Plant Sciences, priority 2019, dated 2025).

Residue numbers refer to the chain shown, from its start. Numbers in names are those of the source.

Holding throughout (type): biochemical
Data set [1] can be described thus: Enzymic reaction of UGT76G1 wild-type and mutants in vitro, substrate orientin, products detected by HPLC. To be noted: in words. The procedure: (§1) The enzymic reaction system (50 μL) includes: 5 μg protein, 1.5 mM UDP-glucose, 250 μM glycosyl acceptor substrate isoorientin, orientin, apigenin or luteolin, and Buffer A (20 mM Tris-HCl, pH=8.0, 100 mM NaCl). The reaction of each mutant protein for the same substrate was repeated three times. Reaction conditions: 37° C. overnight. The reaction was quenched with an equal volume of methanol. After vigorous shaking, the reaction was centrifuged at 12000 rpm for 30 min. The supernatant was used for HPLC detection. Detection method: mobile phase A (acetonitrile, containing 0.1% formic acid)—mobile phase B (water, containing 0.1% formic acid) gradient elution. Chromatographic conditions: gradient elution from initial 5% A to 50% A within 11 min, elution at 100% A for 4 min, and back to 5% A within 1 min for equilibration for 4 min. The peak area of the catalytic product of the mutant was calculated and compared with the peak area of the catalytic product of wild-type UGT76G1.

A short description of data set [2]: Enzymic reaction of UGT76G1 wild-type and mutants in vitro, substrate isoorientin, products detected by HPLC. The conditions noted are these: for conversion efficiency of isoorientin (compound 1): HPLC analysis of FIG. 1; for conversion efficiency of isoorientin (compound 1) / glycosylation efficiency: in words; for yield of compound 2 as compared with the wild type / yield of compound 3 as compared with the wild type: substrate isoorientin 250 μM, 5 μg protein, 1.5 mM UDP-glucose, 37° C. overnight, HPLC peak area, 100% for the wild type; for glycosylation efficiency: substrate isoorientin, versus wild type. On the procedure: The enzyme activity of the glycosyltransferase UGT76G1 mutant can be detected by a technique known in the art. In a specific example of the present invention, the enzyme reaction system with the same conditions is used to detect the enzyme activity of different mutants in vitro. After the reaction, the product was detected by HPLC. The change of a mutant's catalytic activity was analyzed by comparing the relative conversion ratio of the flavonoid isoorientin by the mutant and the wild-type protein.
as §1

Data set [3] can be described thus: Enzymic reaction of UGT76G1 wild-type and mutants in vitro, substrate luteolin, products detected by HPLC. The conditions noted are these: HPLC analysis of FIG. 8; compared with wild-type (WT) or mutants I90L, I199L; in words. The procedure: as §1
Data set [4] is described as follows: Enzymic reaction of UGT76G1 wild-type and mutants in vitro, substrate apigenin, products detected by HPLC. To be noted: HPLC analysis of FIG. 7; compared with wild-type (WT) or mutants I90L, I199L; in words. On the procedure:
as §1

[5] abbreviates: substrate orientin, versus wild type.

B1: wild-type UGT76G1: wild-type glycosyltransferase UGT76G1 derived from Stevia rebaudiana, amino acid sequence of SEQ ID NO: 1 (protein, listed as Stevia rebaudiana)
chain: MENKTETTVRRRRRIILFPVPFQGHINPILQLANVLYSKGFSITIFHTNFNKPKTSNYPHFTFRFILDNDPQDERISNLPTHGPLAGMRIPIINEHGADELRRELELLMLASEEDEEVSCLITDALWYFAQSVADSLNLRRLVLMTSSLFNFHAHVSLPQFDELGYLDPDDKTRLEEQASGFPMLKVKDIKSAYSNWQILKEILGKMIKQTKASSGVIWNSFKELEESELETVIREIPAPSFLIPLPKHLTASSSSLLDHDRTVFQWLDQQPPSSVLYVSFGSSSEVDEKDFLEIARGLVDSKQSFLWVVRPGFVKGSTWVEPLPDGFLGERGRIVKWVPQQEVLAHGAIGAFWTHSGWNSTLESVCEGVPMIFSDFGLDQPLNARYMSDVLKVGVYLENGWERGEIANAIRRVMVDEEGEYIRQNARVLKQKADVSLMKGGSSYESLESLVSYISSL
As for B1, the “conversion rate for orientin (compound 4)” value in data set [1] (HPLC analysis of FIG. 5) is listed as “a certain conversion rate”. In addition, the “conversion efficiency of isoorientin (compound 1)” value in data set [2] is given as “low”.

B2: I199F: glycosyltransferase UGT76G1 mutant, mutation of I at 199th to F (SEQ ID NO: 3) (protein)
chain: B1 chain with I199F
modifications: Variant
B2: in data set [2], the “yield of compound 2 as compared with the wild type” value amounted to 799%, the “yield of compound 3 as compared with the wild type” value is recorded as 278% and the glycosylation efficiency result is given as “significantly increased”.

B3: L204F: glycosyltransferase UGT76G1 mutant, mutation of L at 204th to F (SEQ ID NO: 4) (protein)
chain: B1 chain with L204F
modifications: Variant
B3: the “production efficiency of product 5” value in data set [1] (setting [5]) is reported as “can increase”. In data set [2], the “yield of compound 2 as compared with the wild type” value is given as 285%, the “yield of compound 3 as compared with the wild type” value is recorded as 159% and the glycosylation efficiency entry is reported as “significantly increased”. In addition, the “glycosylation products of luteolin (compound 8)” value in data set [3] is reported as “significantly different from those converted by wild-type”. Also, the “glycosylation products of apigenin (compound 7)” value in data set [4] is “significantly different from those converted by wild-type”.

B4: G87F: glycosyltransferase UGT76G1 mutant, mutation of G at 87th to F (SEQ ID NO: 2) (protein)
chain: B1 chain with G87F
modifications: Variant
Consider B4, for which, in data set [2], the “conversion efficiency of isoorientin (compound 1)” value was “relatively the highest”, the “yield of compound 2 as compared with the wild type” value turned out to be 1381%, the “yield of compound 3 as compared with the wild type” value is 1235% and the glycosylation efficiency result is on record as “significantly increased”. In addition, the “glycosylation products of luteolin (compound 8)” value in data set [3] is given as “significantly different from those converted by wild-type”. In addition, the “glycosylation products of apigenin (compound 7)” value in data set [4] is listed as “significantly different from those converted by wild-type”.

B5: L379W: glycosyltransferase UGT76G1 mutant, mutation of L at 379th to W (SEQ ID NO: 5) (protein)
chain: B1 chain with L379W
modifications: Variant
For B5, the “production efficiency of product 6” value in data set [1] (setting [5]) is reported as “can increase”.
